Key:
[1] = target: T1, Pyrococcus furiosus (Pfu) RNase P protein RPP30 (Pyrococcus furiosus); test: ITC; Pop5 (148 uM) titrated into RPP30 (14.8 uM); 55°C; no salt or 150 mM NaCl; smaller injections, higher Wiseman c value; two-site model
T1 sequence (Q8TZS0 1-214, looked up): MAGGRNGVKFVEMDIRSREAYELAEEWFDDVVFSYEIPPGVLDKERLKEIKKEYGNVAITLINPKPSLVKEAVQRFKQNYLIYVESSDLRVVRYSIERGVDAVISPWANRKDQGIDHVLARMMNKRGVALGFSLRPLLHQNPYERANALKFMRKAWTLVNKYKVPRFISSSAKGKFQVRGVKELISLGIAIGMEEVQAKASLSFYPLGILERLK

[2] = target: T1, Pyrococcus furiosus (Pfu) RNase P protein RPP30 (Pyrococcus furiosus); test: ITC; Pop5 (87.2 uM) titrated into RPP30 (4.95 uM); 55°C; 10 mM sodium acetate pH 5 with 130 mM KCl; one-site model; apparent
[3] = target: T1, Pyrococcus furiosus (Pfu) RNase P protein RPP30 (Pyrococcus furiosus); test: ITC; Pop5 (87.2 uM) titrated into RPP30 (9.89 uM); 55°C; 10 mM sodium acetate pH 5, no salt; one-site model; apparent

stoichiometry N [1]: 1
Kd [2]: 3.5 nM
stoichiometry N [2]: 1
Kd [3]: 124 nM
stoichiometry N [3]: 1
B1: Pyrococcus furiosus (Pfu) RNase P protein Pop5, Cys72Ser variant (natural protein)
chain: MSERPKTLPPTLRDKKRYIAFKVISENQFNKDEIKEAIWNACLRTLGELGTAKAKPWLIKFDETTQTGIIRSDRNHVYDVIFSLTLVSDINGNKAIIKVLGVSGTIKRLKRKFLSQFGWR

Reference: article PMC3227427
